Measured values from US20180289842A1.

Molecular target: albumin
Experiment: albumin binding constant (K), same method as the earlier dye-albumin study; method not described

Substance “LS838: Cypate-Cyclo(DCys-Gly-Arg-Asp-Ser-Pro-Cys)-Tyr-OH (peptide)” has a Ka of 86000 M⁻¹.
